Reference: the supplement of paper PMC9732359
± gives the uncertainty stated by the source.

Experiment: protein stability index of a GFP-peptide fusion (yeast GPS) (PSI 1-4); higher = more stable; sorted into four equal gates, so the index is relative within each strain
Method in brief: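 The protein stability index combines read frequencies across sorting gates, each weighted by its gate number and then summed. To obtain those frequencies, a pooled yeast library of GFP fusions to tiled 17-residue yeast protein peptides, on a plasmid also expressing Cherry, was grown to mid-log phase in leucine-free medium. The cells were sorted into four equal gates by GFP/Cherry ratio before plasmid amplification by PCR and Illumina sequencing.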

Sequence | protein stability index (doa10∆) | protein stability index (pdr5∆) | protein stability index (san1∆) | protein stability index (ubr1∆)
EIAQANSRNAIRKLVKN [RPL19A] | 2.9 ± 0.15 | 3.01 ± 0.083 | 2.86 ± 0.11 | 3.1 ± 0.098
EIDDTEAEVTAEVNGGD [BRR2] | 3.13 ± 0.088 | 2.79 ± 0.12 | 3.01 ± 0.13 | 3.16 ± 0.065
EIEDGQDGGVTPYSNES [RPO21] | 3.49 ± 0.1 | 3.35 ± 0.069 | 3.38 ± 0.049 | 3.22 ± 0.08
EIEPILMEIHNILKVDS [RGR1] | 1.74 ± 0.098 | 1.84 ± 0.1 | 1.98 ± 0.15 | 1.76 ± 0.065
EIGLLGGRYVYPVHEAH [SNU114] | 1.85 ± 0.064 | 2.55 ± 0.091 | 2.79 ± 0.077 | 2.03 ± 0.084
EIGLLPEDALVNDFSDI [SMC3] | 3.44 ± 0.089 | 2.91 ± 0.12 | 3.19 ± 0.088 | 3.3 ± 0.11
EIINNKTSSQTSLSSKD [YMR153W/NUP53] | 2.33 ± 0.067 | 2.12 ± 0.073 | 2.34 ± 0.12 | 2.45 ± 0.045
EIKVGKQRFQGCNNLIK [ARP9] | 2.76 ± 0.16 | 3.06 ± 0.13 | 3.39 ± 0.092 | 3.34 ± 0.12
EILGINLANEQPVLEKP [SIR4] | 3 ± 0.068 | 3.2 ± 0.052 | 3.21 ± 0.045 | 3.11 ± 0.046
EILILINDPTNKEYTLV [SIN4] | 1.77 ± 0.072 | 2.05 ± 0.067 | 2.06 ± 0.1 | 2.23 ± 0.14
EIMEERNVEQKLNELDE [NNF1] | 3.11 ± 0.08 | 2.94 ± 0.077 | 3.13 ± 0.052 | 3.27 ± 0.045
EIPTQIYRTTRQDGSYT [ARP9] | 2.94 ± 0.081 | 3.17 ± 0.086 | 2.93 ± 0.083 | 3.06 ± 0.059
EIRRSLSLNLGDYGSAK [POP5] |  | 3.06 ± 0.09 | 3.05 ± 0.18 | 
EISASESKFILEALRQN [RRP45] | 2.94 ± 0.096 | 2.98 ± 0.12 | 2.88 ± 0.094 | 2.81 ± 0.074
EISRLKTSLSIKVENLN [SMC2] | 2.76 ± 0.077 | 2.55 ± 0.13 | 2.39 ± 0.17 | 2.56 ± 0.064
EKENRFEIVDREKNSLE [SMC4] | 2.63 ± 0.09 | 2.93 ± 0.11 | 3.1 ± 0.1 | 3.3 ± 0.085
EKFSEKMLKIWTMAFRT [ECM29] | 2 ± 0.11 | 2.09 ± 0.1 | 1.37 ± 0.2 | 1.48 ± 0.09
EKGKKVTGFKDEVLETV [RPS1A] | 1.32 ± 0.13 | 1.31 ± 0.1 |  | 1.37 ± 0.1
EKIDGMDVDSVKTTLVS [RPC82] | 2.54 ± 0.11 | 2.78 ± 0.12 | 2.73 ± 0.11 | 2.1 ± 0.29
EKIWFAISKENLCGDIS [SIR3] | 2.39 ± 0.064 | 2.44 ± 0.078 | 2.27 ± 0.11 | 1.91 ± 0.078
EKKLMQDNKQLYQIWIV [YDL116W/NUP84] | 2.06 ± 0.075 | 1.83 ± 0.078 | 2.72 ± 0.15 | 1.44 ± 0.072
EKKPAAKKTSTSVDGKK [HTB2] | 2.38 ± 0.2 | 2.94 ± 0.15 | 2.72 ± 0.19 | 2.55 ± 0.2
EKLAVSALEQAIIYQRG [YGL100W/SEH1] | 2.04 ± 0.097 | 2.38 ± 0.11 | 2.11 ± 0.096 | 2.4 ± 0.12
EKLLETNVSKQNDFLFS [ECM29] | 2.64 ± 0.1 | 2.97 ± 0.093 | 1.53 ± 0.16 | 1.76 ± 0.089
EKLLQQDREITNWARTT [MED8] | 2.37 ± 0.09 | 1.77 ± 0.087 | 2.48 ± 0.089 | 2.06 ± 0.11
EKLYIFYKLNMPDEFNT [SRP72] | 2.13 ± 0.043 | 1.96 ± 0.053 | 1.91 ± 0.078 | 1.6 ± 0.041

Sequence | protein stability index (doa10∆) | protein stability index (pdr5∆) | protein stability index (san1∆) | protein stability index (ubr1∆)
EKNEKEREIKRRKFDPS [UBP6] | 3.3 ± 0.05 | 3.25 ± 0.051 | 3.09 ± 0.044 | 3.25 ± 0.057
EKPFNENRFQDTLLLLP [POP4] | 1.52 ± 0.11 | 2.58 ± 0.076 | 1.52 ± 0.14 | 2.72 ± 0.1
EKSGISKMSDESFAELM [RPC17] | 3.26 ± 0.14 |  | 3.27 ± 0.11 | 3.42 ± 0.2
EKSLLPKIETNVYVGMT [ISW2] | 2.92 ± 0.13 | 2.97 ± 0.11 | 3.07 ± 0.098 | 3.2 ± 0.1
EKSRISERDSKDRYING [YMR129W/POM152] | 3.01 ± 0.09 | 3.08 ± 0.062 | 3.04 ± 0.066 | 2.54 ± 0.05
EKVILVQEQLSKNRIIV [RET1] | 1.63 ± 0.087 | 1.38 ± 0.084 | 1.5 ± 0.11 | 1.37 ± 0.052
EKVTIAPLVLLSALDHY [RPN8] | 1.62 ± 0.033 | 1.63 ± 0.031 | 1.42 ± 0.06 | 1.48 ± 0.029
ELDAQTLPGDDELDQEI [RPT5] | 3.32 ± 0.097 | 3.26 ± 0.12 | 3.44 ± 0.083 | 3.59 ± 0.094
ELEEQESESERKYDLFQ [SMC2] | 3.32 ± 0.16 | 3.28 ± 0.11 | 3.31 ± 0.068 | 3.29 ± 0.094
ELHKKLVEAAKLLKIPK [YDL116W/NUP84] | 2.57 ± 0.13 | 2.24 ± 0.15 | 2.33 ± 0.22 | 2.49 ± 0.1
ELIKNYITARIMAKRPF [FAS1] | 2.93 ± 0.13 | 2.58 ± 0.26 | 3.03 ± 0.046 | 2.78 ± 0.21
ELLDFLTSNLSNYSRTM [YJL039C/NUP192] | 2.35 ± 0.076 | 2.54 ± 0.079 | 2.82 ± 0.054 | 2.59 ± 0.085
ELLEHIETIGHLITKEE [RPN5] | 2.91 ± 0.076 | 3.03 ± 0.11 | 3.08 ± 0.068 | 3.12 ± 0.076
ELNDIDTKIDQVNGNIR [SMC3] | 3.34 ± 0.22 | 3.34 ± 0.12 | 3.07 ± 0.13 | 3.2 ± 0.1
ELNSSEDILEDMNSNLQ [SMC1] | 3.38 ± 0.072 | 3.32 ± 0.072 | 3.24 ± 0.045 | 3.2 ± 0.054
ELNYFVGCKNLERLTLV [GRR1] | 2.92 ± 0.11 | 2.83 ± 0.093 | 2.19 ± 0.094 | 3.05 ± 0.081
ELPLEDFKAKYCDSMGR [RPB5] | 3.31 ± 0.13 | 3.29 ± 0.14 | 3.74 ± 0.13 | 3.51 ± 0.12
ELQIFKTANSSSDAFEK [YIL149C/MLP2] | 2.44 ± 0.049 | 2.73 ± 0.049 | 2.61 ± 0.061 | 2.75 ± 0.049
ELQKLVHDLNKYKSNTN [SMC2] | 3.15 ± 0.072 | 3.31 ± 0.071 | 3.41 ± 0.047 | 3.32 ± 0.06
ELRRPGVDNLRRMGILK [RPO31] | 3.17 ± 0.079 | 2.98 ± 0.067 | 2.85 ± 0.06 | 3.08 ± 0.039
ELRYQSHILNSHSLALN [DSN1] | 2.29 ± 0.066 | 2.66 ± 0.058 | 2.63 ± 0.057 | 2.66 ± 0.049
ELSNELSRLSTASKIIV [MED1] | 2.68 ± 0.087 | 2.55 ± 0.089 | 2.72 ± 0.097 | 3.26 ± 0.077
ELTKSLSIAFENGDYAA [RPN12] | 3.17 ± 0.16 | 3 ± 0.11 | 3.24 ± 0.073 | 3.24 ± 0.12
ELVFSKGVYLILSEILC [YML103C/NUP188] | 1.93 ± 0.049 | 1.54 ± 0.048 | 1.71 ± 0.07 | 1.51 ± 0.026
ELVVFLPALCKKMGVPY [RPL8A] | 2.92 ± 0.098 | 2.83 ± 0.11 | 2.78 ± 0.14 | 3 ± 0.061
EMGKLRERDITSLFHKF [RRI2] | 1.8 ± 0.071 | 1.83 ± 0.071 | 1.79 ± 0.17 | 1.95 ± 0.058
